Ends that are not written are not given here.
T1: CRF2R
T1 sequence (Q13324 whole entry, species assumed, looked up): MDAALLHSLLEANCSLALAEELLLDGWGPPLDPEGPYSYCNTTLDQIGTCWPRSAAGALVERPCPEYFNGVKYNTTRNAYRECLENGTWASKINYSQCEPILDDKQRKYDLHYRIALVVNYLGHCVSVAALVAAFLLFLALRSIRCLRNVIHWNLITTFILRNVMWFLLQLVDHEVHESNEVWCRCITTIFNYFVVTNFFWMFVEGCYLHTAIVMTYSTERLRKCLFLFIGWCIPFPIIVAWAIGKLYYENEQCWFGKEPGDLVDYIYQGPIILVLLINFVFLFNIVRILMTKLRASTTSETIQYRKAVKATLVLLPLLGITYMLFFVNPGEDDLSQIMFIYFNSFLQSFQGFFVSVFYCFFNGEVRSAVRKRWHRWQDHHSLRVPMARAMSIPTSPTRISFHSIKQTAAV


Experiments:
[1] = biological target: T1, CRF2R; experiment: cell-based or functional assay
[2] = biological target: CRF1R; experiment: cell-based or functional assay
Wherever CRF1R Emax % is given: reference of the scale not given here.
Wherever CRF2R Emax % is given: reference of the scale not given here.

| Binder | CRF2R EC50 [1] [nM] | CRF2R Emax % [1] [%] | CRF1R EC50 [2] [nM] | CRF1R Emax % [2] [%] |
| --- | --- | --- | --- | --- |
| IVLSLDVVIGLLQILLEQARARAAREQATTNARILARV-NH2 [SEQ ID NO 214] | 74.3 | 60 | 100 | 4 |
| DNPSLSIDVPLFLLRTLLELEKTQSQRERAEQNARIFARV-NH2 [SEQ ID NO 385] | 10.2 | 100 | 1000 | 46 |
| DNPSLSIDVPLYLLRTLLELEKTQSQRERAEQNARIFARV-NH2 [SEQ ID NO 387] | 17.9 | 100 | 1000 | 50.1 |
| DNPSLSIDVPLLLLRTLLELEKTQSQRERAEQNARIFARV-NH2 [SEQ ID NO 384] | 7.1 | 97.3 | 1000 | 70.3 |
| DNPSLSIDVPFFLLRTLLELEKTQSQRERAEQNARIFARV-NH2 [SEQ ID NO 386] | 8.7 | 96 | 1000 | 78.2 |
| ZGPPISIDLPLHLLRKMIEIEKQEKEKQQATTNARLLDTV (C-terminal amide) [SEQ ID NO 238] | 16.7 | 100 | 753 | 88 |
| ZGPPISIDLPLYLLRKMIEIEKQEKEKQQATTNARLLDTV (C-terminal amide) [SEQ ID NO 242] | 29 | 94 | 358 | 99 |
| ZGPPISIDLPLYLLRKMIEIEKQEKEKQQATTNARLLDRV (C-terminal amide) [SEQ ID NO 243] | 16.8 | 100 | 440 | 96 |
| ZGPPISIDLPLHLLRKMIEIEKQEKEKQQATTNARLLDRV (C-terminal amide) [SEQ ID NO 239] | 13.2 | 100 | 587 | 80 |
| ZGPPISIDLPHQLLRKMIEIEKQEKEKQQAANNRLLLDTI (C-terminal amide) [SEQ ID NO 212] | 21.3 | 100 | 445 | 100 |
| ZGPPISIDLPQWLLRKMIEIEKQEKEKQQAANNRLLLDTI (C-terminal amide) [SEQ ID NO 213] | 22.3 | 99 | 1000 | 76 |
| ZGPPISIDLPQYLLRKMIEIEKQEKEKQQAANNALLLATI (C-terminal amide) [SEQ ID NO 227] | 33.6 | 95 | 918 | 18 |
| ZGPPISIDLPYFLLRKMIEIEKQEKEKQQAANNRLLLDTI (C-terminal amide) [SEQ ID NO 220] | 4.1 | 98 | 63.6 | 81 |
| ZGPPISIDLPLWLLRKMIEIEKQEKEKQQAANNRLLLDTI (C-terminal amide) [SEQ ID NO 218] | 4.8 | 96 | 98.4 | 100 |
| ZGPPISIDLPWWLLRKMIEIEKQEKEKQQAANNRLLLDTI (C-terminal amide) [SEQ ID NO 216] | 9.9 | 90 | 49.8 | 98 |
| ZGPPISIDLPLHLLRKMIEIEKQEKEKQQAANNALLLATI (C-terminal amide) [SEQ ID NO 241] | 12.6 | 99 | 308 | 99 |
| ZGPPISIDLPAFLLRKMIEIEKQEKEKQQAANNRLLLDTI (C-terminal amide) [SEQ ID NO 222] | 9.4 | 100 | 384 | 95 |
| ZGPPISIDLPFYLLRKMIEIEKQEKEKQQAANNALLLATI (C-terminal amide) [SEQ ID NO 231] | 5.9 | 100 | 94 | 100 |
| ZGPPISIDLPQFLLRKMIEIEKQEKEKQQAANNRLLLDTI (C-terminal amide) [SEQ ID NO 221] | 8.5 | 100 | 236 | 100 |

| Binder | CRF2R EC50 [1] [nM] | CRF2R Emax % [1] [%] | CRF1R EC50 [2] [nM] | CRF1R Emax % [2] [%] |
| --- | --- | --- | --- | --- |
| ZGPPISIDLPFHLLRKMIEIEKQEKEKQQAANNALLLATI (C-terminal amide) [SEQ ID NO 229] | 10.3 | 100 | 298 | 100 |
| ZGPPISIDLPYWLLRKMIEIEKQEKEKQQAANNRLLLDTI (C-terminal amide) [SEQ ID NO 215] | 4 | 100 | 188 | 100 |
| ZGPPISIDLPTYLLRKMIEIEKQEKEKQQAANNALLLDTI (C-terminal amide) [SEQ ID NO 232] | 45.3 | 100 | 1000 | 7 |
| ZGPPISIDLPLELLRKMIEIEKQEKEKQQAANNALLLDTI (C-terminal amide) [SEQ ID NO 235] | 25.7 | 100 | 806 | 70 |
| ZGPPISIDLPFYLLRKMIEIEKQEKEKQQAANNALLLDTI (C-terminal amide) [SEQ ID NO 230] | 8.1 | 100 | 219 | 100 |
| ZGPPISIDLPFWLLRKMIEIEKQEKEKQQAANNRLLLDTI (C-terminal amide) [SEQ ID NO 217] | 4.7 | 95 | 94.7 | 100 |
| ZGPPISIDLPFFLLRKMIEIEKQEKEKQQAANNRLLLDTI (C-terminal amide) [SEQ ID NO 223] | 3 | 92 | 48.1 | 81 |
| ZGPPISIDLPLHLLRKMIEIEKQEKEKQQAANNALLLDTI (C-terminal amide) [SEQ ID NO 240] | 22 | 100 | 915 | 80 |
| ZGPPISIDLPLELLRKMIEIEKQEKEKQQAANNALLLATI (C-terminal amide) [SEQ ID NO 234] | 20.6 | 100 | 434 | 96 |
| ZGPPISIDLPHFLLRKMIEIEKQEKEKQQAANNRLLLDTI (C-terminal amide) [SEQ ID NO 219] | 7.8 | 98 | 80.9 | 100 |
| ZGPPISIDLPFHLLRKMIEIEKQEKEKQQAANNALLLDTI (C-terminal amide) [SEQ ID NO 228] | 7.1 | 100 | 276 | 100 |
| ZGPPISIDLPIYLLRKMIEIEKQEKEKQQAANNALLLDTI (C-terminal amide) [SEQ ID NO 236] | 40.4 | 97 | 1000 | 15 |
| ZGPPISIDLPYYLLRKMIEIEKQEKEKQQAANNALLLDTI (C-terminal amide) [SEQ ID NO 226] | 7.6 | 100 | 315 | 95 |
| ZGPPISIDLPIYLLRKMIEIEKQEKEKQQAANNALLLATI (C-terminal amide) [SEQ ID NO 237] | 22.2 | 93 | 1000 | 18 |
| ZGPPISIDLPTYLLRKMIEIEKQEKEKQQAANNALLLATI (C-terminal amide) [SEQ ID NO 233] | 46.1 | 95 | 1000 | 11 |
| ZGPPISIDLPLYLLRKMIEIEKQEKEKQQAANNALLLDTI (C-terminal amide) [SEQ ID NO 244] | 8.8 | 98 | 300 | 100 |
| ZGPPISIDLPQYLLRKMIEIEKQEKEKQQAANNALLLDTI (C-terminal amide) [SEQ ID NO 224] | 26.9 | 100 | 1000 | 27 |
| ZGPPISIDLPYYLLRKMIEIEKQEKEKQQAANNALLLATI (C-terminal amide) [SEQ ID NO 225] | 4.8 | 89 | 220 | 97 |

— patent US20030148958A1 (PROCTER AND GAMBLE, published 2003)
